# B1: Suppressor of kinetochore protein 1 (Schizosaccharomyces pombe (strain ATCC 38366 / 972)), Q9Y709 (parent)
# chain: MSKIKLISSDNEEFVVDQLIAERSMLIKNMLEDVGEINVPIPLPNVSSNVLRKVLEWCEHHKNDLYSGTEEESDIRLKKSTDIDEWDRKFMAVDQEMLFEIVLASNYLDIKPLLDTGCKTVANMIRGKSPEDIRKTFNIPNDFTPEEEEQIRKENEWAEDR
# partner: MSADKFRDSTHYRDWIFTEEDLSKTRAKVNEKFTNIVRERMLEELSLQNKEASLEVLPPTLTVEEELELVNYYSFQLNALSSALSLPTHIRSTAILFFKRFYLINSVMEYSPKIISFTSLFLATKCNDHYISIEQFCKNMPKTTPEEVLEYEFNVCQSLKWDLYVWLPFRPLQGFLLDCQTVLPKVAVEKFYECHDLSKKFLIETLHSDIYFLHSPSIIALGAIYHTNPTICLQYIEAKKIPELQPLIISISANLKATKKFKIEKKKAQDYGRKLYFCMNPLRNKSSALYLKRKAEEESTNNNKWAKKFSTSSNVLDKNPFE
# Variants of: B1
# Settings: with cgm2_schpo mcs2, P36613
row,Variant,effect of a mutation on the interaction
1,I139N,decreasing interaction

# From IntAct's records for PubMed 15555586
